Assay: soluble on expression in E. coli; label from the status in PepcDB or PDB records

Sequence: MGSDKIHHHHHHMIRNKAFVVRLYPNAAQTELINRTLGSARFVYNHFLARRIAAYKESGKGLTYGQTSSELTLLKQAEETSWLSEVDKFALQNSLKNLETAYKNFFRTVKQSGKKVGFPRFRKKRTGESYRTQFTNNNIQIGEGRLKLPKLGWVKTKGQQDIQGKILNVTVRRIHEGHYEASVLCEVEIPYLPAAPKFAAGVDVGIKDFAIVTDGVRFKHEQNPKYYRSTLKRLRKAQQTLSRRKKGSARYGKAKTKLARIHKRIVNKRQDFLHKLTTSLVREYEIIGTEHLKPDNMRKNRRLALSISDAGWGEFIRQLEYKAAWYGRLVSKVSPYFPSSQLCHDCGFKNPEVKNLAVRTWTCPNCGETHDRDENAALNIRREALVAAGISDTLNAHGGYVRPASAGNGLRSENHATLVV
- soluble on expression in E. coli: not soluble

Sequence: MSCEIVVYPAQDSTTTNIQDISIKNYFKKYGEISHFEAFNDPNSALPLHVYLIKYASSDGKINDAAKAAFSAVRKHESSGCFIMGFKFEVILNKHSILNNIISKFVEINVKKLQKLQENLKKAKEKEAENHHHHHH
- soluble on expression in E. coli: soluble

Sequence: MGHHHHHHSHMERIVMPANYVHTRTTPFWTKETAPASIWRRHLDAGTRQGVYPRLCVMQGTIRYYGYADETSPEPVETLTIEAGQFGVFPPEKWHRIEALSDDTLFNVDFYVDPKILIEG
- soluble on expression in E. coli: soluble

Sequence: MSLLDFSAHALPYASQRSPVHARRGMVATSQPQAAQVGLEILRRGGNAIDAAIATAAALTVVEPTGCGIGGDAFALVWTRGRLHGLDASGRAPGLLDRERVRAAGHERMPLYGWTPVTVPGCPAAWGELSRRFGKLPFEQLLRPAIELARDGFPVSPVIARLWQSGLDKFRAALPQRPELRAWFDEFLIDGRAPRAGEVFRQPGQADTLDELARSQCESFYRGELARAIVGHAECSGGYLRAEDLAGYQAKWVEPISLNYRGYDVWEIPPSGQGLIALMTLNILKGFEFGERDCARTWHRQLEAMKLAYVDGLHYISQPQSMRVSVEELLHEDYAASRRALIGERALDPSPGQPRPGGTVYLACGDEEGNLVSFIQSNYHGFGSGVVVPGTGIALQNRGAEFSLDPDHVNCLEPGKQTFHTIIPGFLSKDGVPLGPFGVMGAYMQPQGHVQMVMNLVDFGLNPQAALDAPRWQWLGGLRVGIEHAAPRALAAELAQRGHQVEIAYDSTSYGRGQIVLRDPASGVLCGGTEPRTDSQIAVWEGHHHHHH
- soluble on expression in E. coli: not soluble

Sequence: MAHHHHHHMGTLKAIIAPSVLASNISKLAEETQRMESLGAEWIHLDVMDMHFVPNLSFGPPVINNLKKYTKSIFFDVHLMVEYPEKYVPLLKTSNQLTFHFEALNEDTERCIQLAKEIRDNNLWCGISIKPKTDVQKLVPILDTNLINTVLVMTVEPGFGGQSFMHDMMGKVSFLRKKYKNLNIQVDGGLNIETTEISASHGANIIVAGTSIFNAEDPKYVIDTMRVSVQKYLNN
- soluble on expression in E. coli: soluble

Sequence: AGSDEVNRNECKTVVPLHTWVLISNFKLSYNILRRADGTFERDLGEYLDRRVPANARPLEGVSSFDHIIDQSVGLEVRIYRAAAEGDAEEGAAAVTRPILEFLTDAPAAEPFPVIIFFHGGSFVHSSASSTIYDSLCRRFVKLSKGVVVSVNYRRAPEHRYPCAYDDGWTALKWVMSQPFMRSGGDAQARVFLSGDSSGGNIAHHVAVRAADEGVKVCGNILLNAMFGGTERTESERRLDGKYFVTLQDRDWYWKAYLPEDADRDHPACNPFGPNGRRLGGLPFAKSLIIVSGLDLTCDRQLAYADALREDGHHVKVVQCENATVGFYLLPNTVHYHEVMEEISDFLNANLYYGSHHHHHHHHHH
- soluble on expression in E. coli: soluble

Sequence: MGSDKIHHHHHHMAVLITRPGERGERLVEMLNKAGIMALHLPLISIIAGQELNRLPNKLQQLNCGDYVVAVSKNAVEYAQKTLSAVGFCWRSDLYYFTVGQRTAEYFASQIENSVYYPVEQESSEGLLNLPQMQDLQARNILILRANGGREFFTEQAILRGAKVETLECYQRMPIEYNKLEKISLCQRIGVDTIVVTSQEMLNYLVKLVPTNETGWLFSCRLVTVSQRIAALAKSVGWTNIVVADKADNLSLFLALQQ
- soluble on expression in E. coli: not soluble

Sequence: LKEILDEMFRDEVQKLKYFLEDVKEEDEELYNKIVDALKLFKENYEIEDIKIPKKIRVFLVKNNILFLNPQKGSLKPQSYLVWNAIKMLL
- soluble on expression in E. coli: not soluble

Sequence: MQTVIFGRSGCPYSVRAKDLAEKLSNERDDFQYQYVDIRAEGITKEDLQQKAGKPVETVPQIFVDQQHIGGYTDFAAWVKENLDA
- soluble on expression in E. coli: soluble

Sequence: MKTLSKQDNTMEWLVKKSCCNKQDNRHVLMLCDAGGAIKMIAEVKSDFAVKVGDLLSPLQNALYCINREKLHTVKVLSASCYSPDEWERQCKVAGKTQ
- soluble on expression in E. coli: soluble

Sequence: MMKKKWYIVLTMSGYEEKVKENIEKKVEATGIKNLVGRIVIPEEVVLDATSPSERLILSPKAKLHVNNGKDVNKGDLIAEEPPIYARRSGVIVDVKNVRKIVVETIDRKYTKTYYIPESAGIEPGLRVGTKVKQGLPLSKNEEYICELDGKIVEIERMKKVVVQTPDGEQDVYYIPLDVFDRDRIKKGKEVKQGEMLAEARKFFAKVSGRVEVVDYSTRKEIRIYKTKRRKLFPGYVFVEMIMNDEAYNFVRSVPYVMGFVSSGGQPVPVKDREMRPILRLAGLEEYEEKKKPVKVELGFKVGDMVKIISGPFEDFAGVIKEIDPERQELKVNVTIFGRETPVVLHVSEVEKIE
- soluble on expression in E. coli: soluble

Sequence: MIEINDVNKKYQQTTVLNEINERIPSGGITSIIGPNGAGKSTLLSIMSRLLAADSGNVLFNGLDVAKTSGDKLATILSVLRQENHFTSRLTVSDLVGFGRYPYSRGRLNKNDRQHIDAAMEFLNLMPLKDRYLDELSGGQRQRAYVAMVLCQDTSYILLDEPLNNLDMKHCVAMMKQLRRAADELHKTIILVIHDINFASAYSDHIIAMKNGEVIYRGAPAEIMQPSILEEIFDIKISIEKVQGQHIAVYYR
- soluble on expression in E. coli: not soluble

Sequence: MSQLLKLKSQYDDECTVTRHYEGKGRNAGRLGAVGCKNRHGEFRIGSGFKDKDRDNPPKIGTLITYRYRGFTRKGTPKFATFVRVRTLEHHHHHH
- soluble on expression in E. coli: not soluble

Sequence: MAKEKTVYVCSNCGQESPKWVGKCPSCGEWNTYVEEIVRKETTNRRPVSGIETQKAKPVILSEIEADDEPRINMHDDELNRVLGGGLVPGSLVLIGGEPGIGKSTLVMQTVLRMPDKKILYVSGEESARQLKLRADRLSEVSSDCLIVCETSLEQIYVHIKNTSPDLVIIDSIQTISTENIESSPGSIAQVRECSASILRFAKETHTPVLLIGHINKEGSIAGPKVLEHIVDTVLQFEGDQHYMYRILRSIKNRFGSTAELGIYEMRQDGLRQVSNPSELLLSQDHEGMSGVAIASAIEGVRPFLIETQALVSSAVYGNPQRSATGFDIRRMNMLLAVLEKRVGFKLAQKDVFLNIAGGLKVNDPAIDLAVISAILSSNMDAAVEPEVCMAGEIGLSGEIRPVNRIEQRIGEAEKLGFKRFLLPKYNLQGIDTQKLKIELVPVRKVEEAFRALFG
- soluble on expression in E. coli: not soluble

Sequence: MGSRDDEYDYLFKVVLIGDSGVGKSNLLSRFTRNEFNLESKSTIGVEFATRSISVEGKTVKAQIWDTAGQERYRAITSAYYRGAVGALLVYDIAKHVTYENVERWLKELRDHADQNIVIMLVGNKSDLRHLRAVPTDEAKIYAERNQLSFIETSALDSTNVEAAFTNILTEIYKSVSNKHVGTDRQGYGGGSGTIIPSPASDPPKKQCCIP
- soluble on expression in E. coli: not soluble

Sequence: MGSDKIHHHHHHMLYAYGARVWALPIFTHQVYLDKPTKPGDKTLSLATTGFDFYVGGRAVLMNGNKREMVDITGIEPDKLEIKRSLLNRFDTSTVVYPLRSAVLTDMPQLTRLSDEVATAQIRLQIHEHNGYAADIRHLPTYRGHPVLEPTSEWSEDITAQYLRLIKQLDNGTALPHYLDTAKNAFQLTNHRFLLDSIEAQHKLRQLFYYLRGRQKAIWVASSTSDLTLANDIVGKNLDIELVYYTTCLLKQAGRQDIRIECTDGSVHYRRILAATVSNNQTERLALDGEALNLKREQVAKISFLTLSRLESDTIDWVHHTDTVASVTVSFRGLRDELEV
- soluble on expression in E. coli: not soluble

Sequence: MRILVTNDDGIYSPGLWALAEAASQFGEVFVAAPDTEQSAAGHAITIAHPVRAYPHPSPLHAPHFPAYRVRGTPADCVALGLHLFGPVDLVLSGVNLGSNLGHEIWHSGTVAAAKQGYLFGLSAAAFSVPLNGEVPDFAGLRPWLLRTLETLLRLERPFLVNVNLPLRPKGFLWTRQSVRAYEGVVIPGEDPMGRPFYWFAPRPLKEAEEGTDRWAVAQGFVSATPLRLDLTDETRLQPTLAHD
- soluble on expression in E. coli: soluble

Sequence: GPGSMKPLRIKKRESAGTPAEDEALTGLTSSASSVAAGSLAPRHVPSPPAVKGGRLPAHPGHDSGPSPAAATPAPTAKVSAAVKFSSELDNAAVEAYLEYLTHPHMSWESASRHVAHCREVIEEHRNSIYARSLAMLRRSSFASTIGSEGGDLDALETSTTSSVASAPAGFPRTAPNGSNKATGTLRKGRLGDAGSPLLPSDAAEPLAIVAHSSAAVSSSHSADSASCTSTGTGQRAPSNKGRLLRGPALAGPPRPHRTSSSATAPAAVGESVLGVGGAKLLGGSGSVFLVNGRSSAVTSRTASRDSTDRLPPVAPQGGGESLIHCKRTGGARAAVPSPQPKHRLK
- soluble on expression in E. coli: soluble

Sequence: AFYINVVPDMVGGRLSSHDRDVLGLARQLAGAEGAVLAVVFGEHKETAFDSAGVDRLLLLDGNESDGYSPEQRVQGLRAVDNQFGPQRWVFPDSRTGGGELGRRFAASLGERPATRVWQVKGEHCTSRAGA
- soluble on expression in E. coli: not soluble

Sequence: MGSDKIHHHHHHMTDYFSYLGLQPSREELIQRFGLELDKLMTLDLNLTGRPSYLYSRERNGSGEASSTAFAQLLLDSLASKDVSILVTGWPVRSSIDVSIGEADGPIGAAAIARALHMTTGAVSLAMAPAPLAAQVAAAFRSAGATIIDFDAFERLSKGNERLFGVAIVGLDVDCDLSNYFAELLQNVKPKTVIAIEHYGFSAEGKPYHGTGNVVEPGTALTHPLFDQAMAEGLICGSCVDNPNEVGTSRLHDAGVKHPPMRNDFANLLVGSSANSAAFALCAALAGLSATPTAAFPGSLDEAGIAATLAHGAIDPFSGTADPSFGVDTIESPYHAWIADLMGRLAKGYCVAAATERHL
- soluble on expression in E. coli: not soluble

Sequence: MAHPLDLNQLAQHIKQWGQSLGFQQVGICDTDLTAEEPRLQAWLDKQYHGEMAWMARHGMLRARPHELLPGTLRVISVRMNYLPAKAAFASTLNNPELGYVSRYALGRDYHKLLRQRLKKLGDQIQHYCLEQNNLDRHDLELHDLEQHDSERQGQPEQHTASEINFRPFVDSAPIMERSLAAKAGIGWVGKHSLILNRDAGSWFFLGELLIDLPLPVDKPQEEQCGRCVACMTTCPTGAIVAPYTVDARRCISYLTIELEGAIPEEFRPLMGNRIYGCDDCQLICPWNRFSQLTDEDDFSPRAVLHTPQLLDLFAWNEEKFLRVTEGSAIRRIGHLRWLRNISVALGNAPYLDSIVLALETRRGLHPMLDEHIEWAISQQLARRATQAVEVQLPQKKRLIRAIEKGLPRDA
- soluble on expression in E. coli: not soluble

Sequence: MGSDKIHHHHHHMHFLEKYRFLVIGHRGLPSLCLENTVESFNATFNAGMPAVELDVQYTADGVPVVFHDFDLNRLAGRNSRIGDLKWDDLSKIRLASGSTIPRLSDVLSAFENFNFFIEIKIEKFDNAERKLTDDVARMVIDRSMNDNVVMISFNASAMRYVRDHYDGIITGLDFESPDEADDAVNNNVALPYYAIIDEVFDKIKERPVIPWTVDSYSTAVRLKEMGCRGIITNTGDRFISLIE
- soluble on expression in E. coli: not soluble

Sequence: DKEWNEKELQKLHCAFASLPKHKPGFWSEVAAAVGSRSPEECQRKYMENPRGKGSQKHVT
- soluble on expression in E. coli: soluble

Sequence: MNYEIKQEEKRTVAGFHLVGPWEQTVKKGFEQLMMWVDSKNIVPKEWVAVYYDNPDETPAEKLRCDTVVTVPGYFTLPENSEGVILTEITGGQYAVAVARVVGDDFAKPWYQFFNSLLQDSAYEMLPKPCFEVYLNNGAEDGYWDIEMYVAVQPKHH
- soluble on expression in E. coli: soluble

Reference: the DeepSol protein solubility set
